Measurements published in the RNAGym collection of RNA variant scans (doi:10.1093/molbev/msab373).

B1: Azoarcus group I ribozyme (parent)
chain: GUGCCUUGCGCCGGGAAACCACGCAAGGGAUGGUGUCAAAUUCGGCGAAACCUAAGCGCCCGCCCGGGCGUAUGGCAACGCCGAGCCAAGCUUCGGCGCCUGCGCCGAUGAAGGUGUAGAGACUAGACGGCACCCACCUAAGGCAAACGCUAUGGUGAAGGCAUAGUCCAGGGAGUGGCGAAAGUCACACAAACCGG

Variants of: B1
Assay: reverse-splicing fitness (ratio to wild type); higher = more active; in vitro selection; Mg2+ level not given
In short: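 An in vitro group I ribozyme library with randomized positions was T7-transcribed and gel-purified. In triplicate, 10 pmol RNA in EPPS pH 7.5 was reacted with 50 pmoles of a 30-nt RNA substrate for 1 h at 37 °C across several added MgCl2 levels (1–48 mM), then stopped with EDTA. Products were reverse transcribed from a substrate-complementary primer, PCR-amplified and sequenced (HiSeq 4000). Fitness is a variant's read proportion after selection over that before, normalised to wild type.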

Variant	reverse-splicing fitness
A111U A145U C169U U176G	0.00639
A111U A145U C169U U176A	0.0258
A111U A145U C169U U176C	0.0326
A111U A145G C150U C169U U176A	0.025
A111U A145G C150U C169U U176C	0.0314
A111U A145G C150U C169U U176G	0.00652
A111U A145U C150A U176A	0.192
A111U A145U C150A U176C	0.228
A111U A145U C150A U176G	0.0853
A111U A145U	0.924
A120C A145U C150U	0.744
A120C A145U C150A	0.215
A120C A145U C150G	0.262
A111U C150U C169A U176A	0.015
A111U C150U C169A U176G	0.00669
A111U C150U C169A U176C	0.0138
A120C A145U C150U U176C	0.562
A120C A145U C150U U176G	0.2
A120C A145U C150U U176A	0.652
A120C A145G C150G	0.234
A120C A145G C150A	0.32
A120C A145G C150U	0.781
A111U A145G U176A	0.701
A111U A145G U176C	0.721

Variant	reverse-splicing fitness
A111U A145G U176G	0.267
A111U A145U C150U U176C	0.641
A111U A145U C150U U176A	0.632
A111U A145U C150U U176G	0.266
A120C A145G C169U U176C	0.185
A120C A145G C169U U176A	0.153
A120C A145G C169U U176G	0.015
A120C A145G U176C	0.652
A120C A145G U176A	0.707
A120C A145G U176G	0.212
A120C A145C C169A U176C	0.00838
A120C A145C C169A U176A	0.00918
A120C A145C C169A U176G	0.00331
A111U C150A C169U U176C	0.0188
A111U C150A C169U U176A	0.0201
A111U C150A C169U U176G	0.00721
A111U C169U U176A	0.0279
A111U C169U U176C	0.0365
A111U C169U U176G	0.00752
A111U C169G U176C	0.0333
A111U C169G U176G	0.00596
A111U C169G U176A	0.02
A120C A145G C150U U176A	0.626
A120C A145G C150U U176C	0.566

Variant	reverse-splicing fitness
A120C A145G C150U U176G	0.179
A120C A145C C150A C169G U176C	0.00769
A120C A145C C150A C169G U176A	0.0166
A120C A145C C150A C169G U176G	0.00492
A120C A145G C150A C169G U176A	0.017
A120C A145G C150A C169G U176G	0.00453
A120C A145G C150A C169G U176C	0.0234
A111U C150G C169G U176C	0.00465
A111U C150G C169G U176G	0.00515
A111U C150G C169G U176A	0.00681
A120C A145U C150U C169A U176G	0.00474
A120C A145U C150U C169A U176C	0.0111
A120C A145U C150U C169A U176A	0.0137
A111U C169G	0.0649
A111U C169A	0.0292
A111U C169U	0.103
A111U C150U C169U U176A	0.0262
A111U C150U C169U U176G	0.00705
A111U C150U C169U U176C	0.0237
A120C A145C C150U C169G	0.0109
A120C A145C C150U C169U	0.194
A120C A145C C150U C169A	0.0127
A111U C150U C169A	0.02
A111U C150U C169G	0.0372

Variant	reverse-splicing fitness
A111U C150U C169U	0.0631
A120C A145C C169G U176G	0.00338
A120C A145C C169G U176C	0.0103
A120C A145C C169G U176A	0.0163
A120C A145G C150A C169U U176G	0.00697
A120C A145G C150A C169U U176C	0.0824
A120C A145G C150A C169U U176A	0.0678
A111U C150U C169G U176G	0.00719
A111U C150U C169G U176C	0.0215
A111U C150U C169G U176A	0.0177
A120C A145U C150G C169G U176C	0.00537
A120C A145U C150G C169G U176G	0.00367
A120C A145U C150G C169G U176A	0.00633
A111U A145U C150U	0.88
A111U A145U C150A	0.379
A111U A145U C150G	0.41
A111U A145G C169A U176C	0.0305
A111U A145G C169A U176A	0.0211
A111U A145G C169A U176G	0.00593
A120C A145U C169G	0.0257
A120C A145U C169A	0.032
A120C A145U C150G C169A U176A	0.0113
A120C A145U C150G C169A U176C	0.00821
A120C A145U C150G C169A U176G	0.0044

Variant	reverse-splicing fitness
A120C A145C C150A C169U U176C	0.032
A120C A145C C150A C169U U176A	0.0342
A120C A145C C150A C169U U176G	0.00561
A111U A145U C150U C169U U176G	0.00684
A111U A145U C150U C169U U176C	0.0268
A111U A145U C150U C169U U176A	0.022
A111U A145U C150G C169A U176C	0.0101
A111U A145U C150G C169A U176G	0.00591
A111U A145U C150G C169A U176A	0.0103
A120C A145G C150U C169G U176A	0.014
A120C A145G C150U C169G U176G	0.004
A120C A145G C150U C169G U176C	0.0182
A111U C150A U176G	0.0846
A111U C150A U176C	0.251
A111U C150A U176A	0.207
A120C A145C C150G C169U	0.117
A120C A145C C150G C169A	0.0111
A120C A145C C150G C169G	0.00786
A111U A145U C150A C169G	0.0109
A111U A145U C150A C169A	0.01
A111U A145U C150A C169U	0.018
A120C A145G C150A C169U	0.134
A120C A145G C150A C169G	0.0107
A120C A145G C150A C169A	0.0153

Variant	reverse-splicing fitness
A120C A145C C150G C169U U176C	0.0503
A120C A145C C150G C169U U176A	0.0183
A120C A145C C150G C169U U176G	0.0043
A111U C150A	0.372
A111U C150G	0.308
A111U C150U	0.89
A111U C150G C169U U176C	0.0145
A111U C150G C169U U176A	0.00776
A111U C150G C169U U176G	0.00634
A120C A145U C150G U176A	0.137
A120C A145U C150G U176C	0.156
A120C A145U C150G U176G	0.0206
A120C	0.9
A120C A145U C150A C169G U176C	0.0105
A120C A145U C150A C169G U176G	0.00376
A120C A145U C150A C169G U176A	0.00974
A120C A145C C169G	0.0239
A120C A145C C169A	0.0312
A120C A145C C169U	0.431
A111U A145U C150U C169G U176C	0.0192
A111U A145U C150U C169G U176A	0.016
A111U A145U C150U C169G U176G	0.00643
A111U A145U C150A C169G U176G	0.0065
A111U A145U C150A C169G U176A	0.0129

Variant	reverse-splicing fitness
A111U A145U C150A C169G U176C	0.0169
A111U A145G C150U U176A	0.591
A111U A145G C150U U176C	0.692
A111U A145G C150U U176G	0.22
A111U A145U C150U C169A U176A	0.0144
A111U A145U C150U C169A U176G	0.00694
A111U A145U C150U C169A U176C	0.0104
A111U A145G C150U C169U	0.0923
A111U C150A C169G U176G	0.00571
A111U C150A C169G U176A	0.0165
A111U C150A C169G U176C	0.0236
A120C A145C C150G U176A	0.155
A120C A145C C150G U176C	0.174
A120C A145C C150G U176G	0.0256
A120C A145G	0.772
A120C A145U	0.886
A120C A145C	0.783
A120C A145C C150A	0.128
A120C A145C C150G	0.279
A120C A145C C150U	0.46
A120C A145G C150U C169U U176G	0.0092
A120C A145G C150U C169U U176A	0.125
A120C A145G C150U C169U U176C	0.186
